Source: publication PMC3795039

Legend:
[1] = target: GST-NUP153C (human) (UniProt P49790); experiment: pull-down; 0.47 µM GST-NUP153C pre-bound to glutathione-sepharose beads, 0.8 µM his-tagged IN, PD buffer (150 mM NaCl, 25 mM Tris-HCl pH 7.4, 5 mM MgCl2, 5 mM DTT, 0.1% NP-40), BSA 5 µg, 2 h 4°C; Coomassie and anti-his blot
[2] = target: his-tagged HIV-1 CAN Q63A/Q67A (HIV-1 (NL4-3)); experiment: pull-down; Ni-NTA beads, 20 µM his-tagged CA or CAN, 0.5 µM purified NUP153C, 25 mM Tris-HCl pH 8.0, 150 mM NaCl, 0.1% NP-40, 1 h room temperature; Coomassie or SYPRO Ruby stain
[3] = target: full length his-tagged wild-type HIV-1 CA (HIV-1 (NL4-3)); experiment: as above
[4] = target: HIV-1 CA-NC fusion protein assembled into tube-like complexes (HIV-1); experiment: co-sedimentation; purified tag-free NUP153C or GST incubated with assembled HIV-1 CA-NC complexes, pelleted through a sucrose cushion; Coomassie stain
[5] = target: HIV-1 CA-NC fusion protein assembled into tube-like complexes (HIV-1); experiment: co-sedimentation; competition: 4 µM purified WT or mutant NUP153C added to 0.8 µM assembled CA-NC and CPSF6-HA 293T extract; read-out is CPSF6 in the pellet
[6] = target: T1, his-tagged HIV-1 CA N-terminal domain (CAN) (HIV-1 (NL4-3)), P12493; experiment: pull-down; Ni-NTA beads, 20 µM his-tagged CA or CAN, 0.5 µM purified NUP153C, 25 mM Tris-HCl pH 8.0, 150 mM NaCl, 0.1% NP-40, 1 h room temperature; Coomassie or SYPRO Ruby stain; conditions: remark: other sources report otherwise
[7] = target: T1, his-tagged HIV-1 CA N-terminal domain …; experiment: pull-down; saturation curves: 3 µl Ni-NTA beads, 0.5 µM purified WT or mutant NUP153C, HIV-1 CAN from 2 µM to 200 µM in half-log steps, 150 mM NaCl, 25 mM Tris-HCl pH 8.0, 0.1% NP-40; percent bound by SYPRO Ruby; one-site saturation fit, Kd at half-maximal binding; conditions: remark: other sources report otherwise

In the case of his-tagged FIV integrase (IN) (enzyme), the percent of input pulled down [1] is reported as 5.55%.

For “his-tagged HIV-1 integrase (IN) (enzyme)”, the percent of input pulled down [1] was 0.85%.

In the case of “recombinant tag-free NUP153C (residues 896–1475) (from UniProt P49790-1 896-1475) (domain or fragment)”, the fold decrease of binding against WT CAN [2] is reported as 1.3 fold, the percent of input pulled down [3] is reported as 30% and the percent of input recovered in the pellet [4] is reported as 40%. It also gave a fold decrease of CPSF6 binding to CA-NC with 4 µM NUP153C [5] of 7 fold.

B1: recombinant tag-free NUP153C (residues 896–1475), P49790-1 896-1475 (domain or fragment)
chain: NSAASSSFKFGVSSSSSGPSQTLTSTGNFKFGDQGGFKIGVSSDSGSINPMSEGFKFSKPIGDFKFGVSSESKPEEVKKDSKNDNFKFGLSSGLSNPVSLTPFQFGVSNLGQEEKKEELPKSSSAGFSFGTGVINSTPAPANTIVTSENKSSFNLGTIETKSASVAPFTCKTSEAKKEEMPATKGGFSFGNVEPASLPSASVFVLGRTEEKQQEPVTSTSLVFGKKADNEEPKCQPVFSFGNSEQTKDENSSKSTFSFSMTKPSEKESEQPAKATFAFGAQTSTTADQGAAKPVFSFLNNSSSSSSTPATSAGGGIFGSSTSSSNPPVATFVFGQSSNPVSSSAFGNTAESSTSQSLLFSQDSKLATTSSTGTAVTPFVFGPGASSNNTTTSGFGFGATTTSSSAGSSFVFGTGPSAPSASPAFGANQTPTFGQSQGASQPNPPGFGSISSSTALFPTGSQPAPPTFGTVSSSSQPPVFGQQPSQSAFGSGTTPNSSSAFQFGSSTTNFNFTNNSPSGVFTFGANSSTPAASAQPSGSGGFPFNQSPAAFTVGSNGKNVFSSSGTSFSGRKIKTAVRRRK
For B1, the percent of input pulled down [6] was 30% and the Kd [7] was 28.3 µM.
